assay: soluble on expression in E. coli; label from the status in PepcDB or PDB records

| Sequence | soluble on expression in E. coli |
| --- | --- |
| MIVSAIAANALLESVTKFHCGVIYDYSTAEYVSYRPSDFGAYLDALEAEVARGGLIVFHNGHKYDVPALTKLAKLQLNREFHLPRENCIDTLVLSRLIHSNLKDTDMGLLRSGKLPGKRFGSHALEAWGYRLGEMKGEYKDDFKRMLEEQGEEYVDGMEWWNFNEEMMDYNVQDVVVTKALLEKLLSDKHYFPPEIDFTDVGYTTFWSESLEAVDIEHRAAWLLAKQERNGFPFDTKAIEELYVELAARRSELLRKLTETFGSWYQPKGGTEMFCHPRTGKPLPKYPRIKTPKVGGIFKKPKNKAQREGREPCELDTREYVAGAPYTPVEHVVFNPSSRDHIQKKLQEAGWVPTKYTDKGAPVVDDEVLEGVRVDDPEKQAAIDLIKEYLMIQKRIGQSAEGDKAWLRYVAEDGKIHGSVNPNGAVTGRATHAFPNLAQIPGVRSPYGEQCRAAFGAEHHLDGITGKPWVQAGIDASGLELRCLAHFMARFDNGEYAHEILNGDIHTKNQIAAELPTRDNAKTFIYGFLYGAGDEKIGQIVGAGKERGKELKKKFLENTPAIAALRESIQQTLVESSQWVAGEQQVKWKRRWIKGLDGRKVHVRSPHAALNTLLQSAGALICKLWIIKTEEMLVEKGLKHGWDGDFAYMAWVHDEIQVGCRTEEIAQVVIETAQEAMRWVGDHWNFRCLLDTEGKMGPNWAICH | soluble |
| GPGSMTEHICASLVLTRGPEGLQRRLPVRLPLSGKPITIGRAIDNDVVLEMDLIFSSQWHCQMFAQKCEPETSERVEEREAASDPSRCEGRHVDCEGQTEIPVKEQYSLWLVDVGSSNGTFVNGIRVASSAPTPLHHGDVIVLGGMRDVEVGKSLPMEDLPLEIVTWRVAMEGKSEEGFGFVATPPVFLSMEFVISQARQRALGALQDSPDPKVSTTSPLKLPLKRMRHEQETGSNKLYDDGDVTPKRRIREVSYPSGEDRSGGELARRSGTVAAYLDPNEANAWEVTTNSSSDVASTTGLPCPSSKATASRGYCNSDALAEPTKEDARETRVAPAVARETVQ | soluble |
| MGSDKIHHHHHHMSHITDIAYKNWIVELKSKIRSSQVKASLAINAALIEFYWDLGKMIAEKQTAWGTKFIEQVSHDLQVEFPEMKGLSTTNLKYCRSFYLFYQNAIGQQAVAQLPVTPNVQQGVGEISQQSVDQLQHIEKQVNVFGQQFVAQIPWGHNILIFTKSKSYTEAQFYLQQTISNAWGRETLALQIKSQLFERQGKAITNFKQTLPEPLSDLAQQTLKDPYNFDFVNMAGTMKEKDLEKQLITHISKFLLELGKGFAFVGQQYHLEIAENDYYLDLLFYHIKLKCYVVIELKNTKFVPEYTGKMNFYLSAVDTLLKQDDDKPTIGILLCRDKNNIEAEFALRDINKPIGISEFSFTEILPENLKSSLPTVEELENELQHLTNDTDEN | not soluble |
| MGSDKIHHHHHHMKILFVAPGWPRGRLWGELGFKFPSLALAALAAVTPPEWDAALCDESRETIDFNAPCDLVAITAMTPQAPRAYEIAAGFRARGKTVVMGGFHASNLPDEALGHVDAVVVGEGELSWPLLLADFQAGRLQRLYRSPGLLPMASIPVARREIFAGKGYLLTNTLQTTRGCPFDCEFCSVTAFYGRKYRERPVEAVLAELETLRKANSFAFFVDDNLVADRRYALPLFRGMKGMGFKWLSHAPIDFAGDEELMRAAGESGCIGMFVGFESLDQEALAAMGKVTNSSSAFLDQARKFRDHGIGILGSFVLGYDGDTPDSFGRILRFCEEARIEAAIFPILTPYPGTAVRRRLEAEGRITSNDWRDYDMGHVTFRPTGMTARELQDGHDWLNRSFYSFGSMWRRIGKLHRSVQVFGPMNLGFRSAIRKSDKTKAS | not soluble |
| MQVLTTSRKPGRKTRRFAKVLARFFNWKYVNRGKLSLEDLAGIAERFWIISEVKGNPAILNLYERGEKTLEVSFTLSNVNKIKMDDSPAVFKGKAPIDPLVFGAIPQTKAGLKLTRKVEFRKKVVVKGDEWLFFYDDEMLFKLRILKISRSSR | not soluble |
| MQIYTADGKLIGEVGEQRRIPVKLADVPQRLIDAFLATEDSRFYDHHGLDPIGIARALFVAVSNGGASQGASTITQQLARNFFLTSEKTIIRKAREAVLAVEIENTLNKQEILELYLNKIFLGYRSYGVAAAAQTYFGKSLNELTLSEMAIIAGLPKAPSTMNPLYSL | not soluble |
| MSSIRVVALDWRYEEILHALGITPVGIVEIGKSKEPQTLKGELEGVTSVGQAKQPNLEVIQSLEPDLILASPTRQAAIMDQLKEIAPTHAYGDTSYTEVLDAMDDIATKVGAEDKAKEVRTRIESKIAQAKNKVEPGTRTALIGWSKNTLYTWVKDSFAGSLLTAAGYEYGYDGEKSAIESKTDVAELTGDKLPEMKLDVMYLYNDIEGFRSSPYADVVSNIVDVEQDTWSRSRGPLAAEAMLDQIINSLEHHHHHH | soluble |
| MNEALSSGKVKNGEFLTVYLKEKLPDRLHYSQSYRIPPIIGMVGEGLIVRQNRTNAQECYGDHGYDNKFFSMRTIFVGHGSRFRRGKKVPSFENVQIYSVVADILGLRPAPNNGSSLFPRSILLPFRATRGLE | not soluble |
| MGHHHHHHSHMLSRWDDSQRFLSDHPYLVCEETAKYLILWCFHLEAEKKGALMEQIAHQAVVMQFIMEMAKNCNVDPRGCFRLFFQKAKAEEEGYFEAFKNELEAFKSRVRLYSQSQSFQPMTVQNHVPHSGVGSIGLLESLPQNPDYLQYSISTALCSLNSVVHKEDDEPKMMDTV | not soluble |
| GPGSMNPLSTRRLGGTVTPGSALSGTCYVSHITRPARTMCWMKLAVFTQFPVVPSLAGTQVQGRQDLLASTAGAGTPEEASLFLQIELFDDECPQLCANFRRLCNGQSSTRQGQVYCFQGLTPSYCGTYFHKIIPSYCVQGGDITMRVKPGGTNSYSSAGRTWLPDEFKKRRHNEIGLVSMANNGPNSNGSQFFITTSAAHERAFNGRHCCIGHVVRGLDAFIALVAPFGNIEGHPSKYAVVVDCGEGEAPTLMSASSSPAAVFQASMAISETGTAGSSPAADSRSVSVEEAPAELDAHYCEQPPQLQLQHRQAADGTGVMAALSPSDAAAAAAPLSISPAQPLKSSLKEKTTAVSEAAKTHAKHVTYQL | not soluble |
| MSELLTTYRPIKILLQLDPNLGNNSYNGRVKIDYEFTGETSEIKIQTSRDFQWTSVRLATFYDFNEGCPVYASVDCENYVHDAESEILTLPLGNPLTPETTENGFYIELEWTGPINPQGETTGLYAIDESTIEANMKDGNAHKVFPCYEGGVSAKFWLTVITDERTRVETNMDDAGHEEFEGRVKNNFLKEEELTIEDVYIYVTPIIDME | not soluble |
| MGSDKIHHHHHHMQHHKVAIIGAGAAGIGMAITLKDFGITDVIILEKGTVGHSFKHWPKSTRTITPSFTSNGFGMPDMNAISMDTSPAFTFNEEHISGETYAEYLQVVANHYELNIFENTVVTNISADDAYYTIATTTETYHADYIFVATGDYNFPKKPFKYGIHYSEIEDFDNFNKGQYVVIGGNESGFDAAYQLAKNGSDIALYTSTTGLNDPDADPSVRLSPYTRQRLGNVIKQGARIEMNVHYTVKDIDFNNGQYHISFDSGQSVHTPHEPILATGFDATKNPIVQQLFVTTNQDIKLTTHDESTRYPNIFMIGATVENDNAKLCYIYKFRARFAVLAHLLTQREGLPAKQEVIENYQKNQMYLDDYSCCEVSCTC | not soluble |
| MSEKIRVLLYYKYVSIENAQEYAAKHLEFCKSIGLKGRILIADEGINGTVSGDYETTQKYMDWVHSDERFADLWFKIDEENQQAFRKMFVRYKKEIVHLGLEDNNFDSDINPLETTGEYLNPKQFKEALLDEDTVVLDTRNDYEYDLGHFRGAIRPDIRNFRELPQWVRDNKDKFMEKRVVVYCTGGVRCEKFSGWMVREGFKDVGQLHGGIATYGKDPEVQGELWDGAMYVFDDRISVPINHVNPTVISKDYFDGTPCERYVNCANPFCNKQIFASEENETKYVRGCSPECRAHERNRYVQENGLSRQEWAERLEAIGESLPEFVGALEHHHHHH | soluble |
| MTKPAKIGVLLANLGTPDSPTPKSISRYLWQFLTDPRVVDLPRCKWYPLLKAIILPLRSKRIAKNYQAIWTEQGSPLLAISRQQKDALQAYLDNQNIDTQVEIAMTYGNPSMQSAVKNLLKNQVERIIVLPLYPQYSSSTTGAVFDAFANALKEERGLLPFDFIHSYHIDENYINALADSIKVRLKSDEFLLFSYHGIPLRYEKMGDYYREHCKQTTIAVVNKLGLTENQWRMTFQSRFGREEWLQPYTDKFLESAAAQNIQKIAVICPGFSVDCLETIEEIDEENRENFLNNGGQSYQYIPALNVEHAHIEMMGKLILEKLT | not soluble |
| MASGTASTKIVIAGGFGSGKTTFVGAVSEIMPLRTEAMVTDASAGVDMLEATPDKRSTTVAMDFGRITLGEDLVLYLFGTPGQRRFWFMWDDLVRGAIGAIVLVDCRRLQDSFAAVDFFEHRNLPFLIAINEFDSAPRYPVSAVRDALTLPAHIPVINVDARNRRSATDALIAVSEYALATLSPLEHHHHHH | not soluble |
| GSHMDLLDPVDILSKMPKDFYDKLEEKKWTLRKESLEVLEKLLTDHPKLENGEYGALVSALKKVITKDSNVVLVAMAGKCLALLAKGLAKRFSNYASACVPSLLEKFKEKKPNVVTALREAIDAIYASTSLEAQQESIVESLSNKNPSVKSETALFIARALTRTQPTALNKKLLKLLTTSLVKTLNEPDPTVRDSSAEALGTLIKLMGDKAVTPLLADVDPLKMAKIKECQEKAEIKIKVAG | soluble |
| MGSSHHHHHHSSGRENLYFQGMTTAKRDTYTPETLLSVAVQVFIERGYDGTSMEHLSKAAGISKSSIYHHVTGKEELLRRAVSRALDELFGILDEEHARVGTAAERLEYVVRRMVEVLMAELPYVTLLLRVRGNTGTERWALERRREFDHRVAALLKDAAAEGDVRADVEVRLATRLVFGMINSIVEWYRPEGPDGRSDASGASGVSGAGEREVVDAVARLVFGGLRKAS | soluble |
| MLGSIACSMEFEDFDLYSYFYGLVKQIPEGYVTTYGDLAQALGDPIAARAVGYMLSINEDPDTIPCYRVVLHDGTVGNYTHPLGPMEKVRRLRADGIPVVDGMIENFDRYRFRDFKTDQPLRKMQQYQEYIARKYSESGAGEFRTVAAFDVSYEERRAFASMVIQDGSTIEAYVISDGINFPYIPGYLAFREFRFIKKLYRKADLLLIDGNGILHPRFAGLATHAGVLLDRASIGVAKHLTRSTRHQDIIYMQDRPVGVMIRKNMIVSPGNFIDVNGSADTVRKMWNDRYPWPLKLAHQLSTRHAETGGRVSEYSIESAHELHLEHHHHHH | soluble |
| TEELEKAYDSLKESEEHLRLTLEGSKAGMWMWDLRANWKITPQMNALLGRSESSPIKYEEFISMIHPEDQERVAQAWNKAIECKDFYDQEYRIFLPDGSIHWLSSKGSVIELHSGIRQLMGITTDIT | not soluble |
| MLEDLRANSWSLRPCCMVLAYRIAHFCSVWRKKNVLNNLWAAPVLVLYRVITECLFGYEIQAAATIGRRFTIHHGYAVVINKHVVAGDDFTIRHGVTIGNRGADSLACPVIGNGVELGANVILLGDITIGNHVTIGAGSVVLDSIPDHALVVGEKARVKVST | not soluble |
| MGSDKIHHHHHHMNLRNTAVFKFLVLTLGIISCQAYAEDTVIVNDHDISAIKDCWQKNSDDDTDVNVIKSCLRQEYNLVDAQLNKAYGEAYRYIEQVPRTGVKKPDTEQLNLLKKSQRAWLDFRDKECELILSNEDVQDLSDPYSESEWLSCMIIQTNTRTRQLQLYRNSEDFYPSPLTRG | not soluble |
